Measurements from the supplement of paper PMC10567573.

B1: CSTF3 (parent)
chain: YVPEKVKKAEKKLEENPYDLDAWS

Variants of: B1
Experiment: protein stability index of a GFP-peptide fusion (GPS, HEK-293T) (PSI 1-6); higher = more stable
Conditions: c terminus: a fixed tail appended
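Also: lentivirally expressed fusions sorted by FACS into six bins by GFP to DsRed ratio, PSI derived from sequencing read proportions per bin multiplied by bin number.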

Compared with YVPEKVKKAEKKLECNPYDLDAWS [E15C], YVPEKVKKAEKKLEQNPYDLDAWS [E15Q] is higher in protein stability index: 2.68 for the first, 3.42 for the second.

Going from YVPEKVKKAEKKLERNPYDLDAWS [E15R] to YVPEKVKKAEKKLEGNPYDLDAWS [E15G], the protein stability index falls from 3.05 to 2.88.

Going from YVPEKVKKAEKKLEKNPYDLDAWS [E15K] to YVPEKVKKAEKKLEHNPYDLDAWS [E15H], the protein stability index falls from 3.45 to 2.05.

Compared with YVPEKVKKAEKKLEDNPYDLDAWS [E15D], YVPEKVKKAEKKLEMNPYDLDAWS [E15M] is higher in protein stability index: 2.86 for the first, 2.99 for the second.

Compared with YVPEKVKKAEKKLEYNPYDLDAWS [E15Y], YVPEKVKKAEKKLEVNPYDLDAWS [E15V] is higher in protein stability index: 3.42 for the first, 3.54 for the second.

First: YVPEKVKKAEKKLESNPYDLDAWS [E15S]
Second: YVPEKVKKAEKKLEANPYDLDAWS [E15A]
The protein stability index of the first is lower: 3.34 for the first, 3.94 for the second.

Compared with YVPEKVKKAEKKLEPNPYDLDAWS [E15P], YVPEKVKKAEKKLEFNPYDLDAWS [E15F] is higher in protein stability index: 2.47 for the first, 2.55 for the second.

Going from YVPEKVKKAEKKLELNPYDLDAWS [E15L] to YVPEKVKKAEKKLEWNPYDLDAWS [E15W], the protein stability index falls from 3.23 to 2.8.

Going from YVPEKVKKAEKKLETNPYDLDAWS [E15T] to YVPEKVKKAEKKLEEQPYDLDAWS [N16Q], the protein stability index rises from 1.58 to 2.24.

Compared with YVPEKVKKAEKKLEEAPYDLDAWS [N16A], YVPEKVKKAEKKLEECPYDLDAWS [N16C] is lower in protein stability index: 2.04 for the first, 1.67 for the second.

First: YVPEKVKKAEKKLEEYPYDLDAWS [N16Y]
Second: YVPEKVKKAEKKLEEEPYDLDAWS [N16E]
The protein stability index of the first is lower: 2.56 for the first, 3.13 for the second.

First: YVPEKVKKAEKKLEERPYDLDAWS [N16R]
Second: YVPEKVKKAEKKLEESPYDLDAWS [N16S]
The protein stability index of the first is lower: 2.64 for the first, 2.65 for the second.

First: YVPEKVKKAEKKLEEDPYDLDAWS [N16D]
Second: YVPEKVKKAEKKLEEMPYDLDAWS [N16M]
The protein stability index of the first is higher: 2.73 for the first, 1.81 for the second.

Going from YVPEKVKKAEKKLEEFPYDLDAWS [N16F] to YVPEKVKKAEKKLEEGPYDLDAWS [N16G], the protein stability index falls from 3.03 to 2.54.

Compared with YVPEKVKKAEKKLEEWPYDLDAWS [N16W], YVPEKVKKAEKKLEELPYDLDAWS [N16L] is higher in protein stability index: 2.08 for the first, 3.68 for the second.

Going from YVPEKVKKAEKKLEEPPYDLDAWS [N16P] to YVPEKVKKAEKKLEEIPYDLDAWS [N16I], the protein stability index falls from 1.67 to 1.05.

Going from YVPEKVKKAEKKLEETPYDLDAWS [N16T] to YVPEKVKKAEKKLEEKPYDLDAWS [N16K], the protein stability index rises from 2.27 to 3.09.

First: YVPEKVKKAEKKLFENPYDLDAWS [E14F]
Second: YVPEKVKKAEKKLLENPYDLDAWS [E14L]
The protein stability index of the first is lower: 1.88 for the first, 2.35 for the second.

First: YVPEKVKKAEKKLIENPYDLDAWS [E14I]
Second: YVPEKVKKAEKKLAENPYDLDAWS [E14A]
The protein stability index of the first is higher: 3.95 for the first, 2.61 for the second.

First: YVPEKVKKAEKKLVENPYDLDAWS [E14V]
Second: YVPEKVKKAEKKLRENPYDLDAWS [E14R]
The protein stability index of the first is lower: 2.25 for the first, 2.36 for the second.

First: YVPEKVKKAEKKLHENPYDLDAWS [E14H]
Second: YVPEKVKKAEKKLNENPYDLDAWS [E14N]
The protein stability index of the first is higher: 2.92 for the first, 2.18 for the second.

Compared with YVPEKVKKAEKKLQENPYDLDAWS [E14Q], YVPEKVKKAEKKLSENPYDLDAWS [E14S] is higher in protein stability index: 2.02 for the first, 3.27 for the second.

Compared with YVPEKVKKAEKKLTENPYDLDAWS [E14T], YVPEKVKKAEKKLGENPYDLDAWS [E14G] is lower in protein stability index: 2.26 for the first, 2.17 for the second.

Going from YVPEKVKKAEKKLCENPYDLDAWS [E14C] to YVPEKVKKAEKKLYENPYDLDAWS [E14Y], the protein stability index falls from 3.58 to 2.2.

First: YVPEKVKKAEKKLKENPYDLDAWS [E14K]
Second: YVPEKVKKAEKKLWENPYDLDAWS [E14W]
The protein stability index of the first is lower: 2.88 for the first, 3.09 for the second.

First: YVPEKVKKAEKKLPENPYDLDAWS [E14P]
Second: YVPEKVKKAEKKTEENPYDLDAWS [L13T]
The protein stability index of the first is higher: 3.04 for the first, 1.92 for the second.

Compared with YVPEKVKKAEKKFEENPYDLDAWS [L13F], YVPEKVKKAEKKAEENPYDLDAWS [L13A] is higher in protein stability index: 2.02 for the first, 2.25 for the second.

Going from YVPEKVKKAEKKVEENPYDLDAWS [L13V] to YVPEKVKKAEKKYEENPYDLDAWS [L13Y], the protein stability index falls from 2.21 to 1.87.

Going from YVPEKVKKAEKKIEENPYDLDAWS [L13I] to YVPEKVKKAEKKKEENPYDLDAWS [L13K], the protein stability index falls from 3.1 to 2.5.

Going from YVPEKVKKAEKKGEENPYDLDAWS [L13G] to YVPEKVKKAEKKQEENPYDLDAWS [L13Q], the protein stability index rises from 2.23 to 2.36.

First: YVPEKVKKAEKKDEENPYDLDAWS [L13D]
Second: YVPEKVKKAEKKHEENPYDLDAWS [L13H]
The protein stability index of the first is lower: 2.22 for the first, 2.49 for the second.

Compared with YVPEKVKKAEKKREENPYDLDAWS [L13R], YVPEKVKKAEKKPEENPYDLDAWS [L13P] is lower in protein stability index: 2.67 for the first, 2.46 for the second.

Going from YVPEKVKKAEKKEEENPYDLDAWS [L13E] to YVPEKVKKAEKKMEENPYDLDAWS [L13M], the protein stability index rises from 2.86 to 3.19.

Going from YVPEKVKKAEKKWEENPYDLDAWS [L13W] to YVPEKVKKAEKKSEENPYDLDAWS [L13S], the protein stability index rises from 2.45 to 3.52.

Compared with YVPEKVKKAEWKLEENPYDLDAWS [K11W], YVPEKVKKAEPKLEENPYDLDAWS [K11P] is higher in protein stability index: 2.4 for the first, 2.65 for the second.

Compared with YVPEKVKKAEQKLEENPYDLDAWS [K11Q], YVPEKVKKAESKLEENPYDLDAWS [K11S] is lower in protein stability index: 3.48 for the first, 2.66 for the second.

First: YVPEKVKKAERKLEENPYDLDAWS [K11R]
Second: YVPEKVKKAEVKLEENPYDLDAWS [K11V]
The protein stability index of the first is lower: 2.94 for the first, 3.77 for the second.

Going from YVPEKVKKAEYKLEENPYDLDAWS [K11Y] to YVPEKVKKAEKRLEENPYDLDAWS [K12R], the protein stability index rises from 2.72 to 2.88.

Going from YVPEKVKKAEKQLEENPYDLDAWS [K12Q] to YVPEKVKKAEKLLEENPYDLDAWS [K12L], the protein stability index falls from 3.16 to 2.95.

Going from YVPEKVKKAEKDLEENPYDLDAWS [K12D] to YVPEKVKKAEKPLEENPYDLDAWS [K12P], the protein stability index rises from 2.9 to 3.32.

Going from YVPEKVKKAEKCLEENPYDLDAWS [K12C] to YVPEKVKKAEKNLEENPYDLDAWS [K12N], the protein stability index rises from 2.49 to 2.92.

First: YVPEKVKKAEKTLEENPYDLDAWS [K12T]
Second: YVPEKVKKAEKHLEENPYDLDAWS [K12H]
The protein stability index of the first is higher: 3.28 for the first, 3.19 for the second.

First: YVPEKVKKAEKVLEENPYDLDAWS [K12V]
Second: YVPEKVKKAEKGLEENPYDLDAWS [K12G]
The protein stability index of the first is lower: 2.59 for the first, 2.68 for the second.

Going from YVPEKVKKAEKFLEENPYDLDAWS [K12F] to YVPEKVKKAEKELEENPYDLDAWS [K12E], the protein stability index falls from 3.31 to 2.41.

First: YVPEKVKKAEKWLEENPYDLDAWS [K12W]
Second: YVPEKVKKAEKILEENPYDLDAWS [K12I]
The protein stability index of the first is higher: 2.9 for the first, 2.7 for the second.

First: YVPEKVKKAEKYLEENPYDLDAWS [K12Y]
Second: YVPEKVKKAEKMLEENPYDLDAWS [K12M]
The protein stability index of the first is higher: 2.72 for the first, 2.6 for the second.

Going from YVPEKVKKAEKALEENPYDLDAWS [K12A] to YVPEKVKKAEKSLEENPYDLDAWS [K12S], the protein stability index rises from 2.82 to 3.79.
